Patent publication US20230167182A1 (BIOSION, published 2023)
Substitutions are numbered along the chain they refer to.

T1: macaca IL6R-his protein (macaca mulatta)
T1 chain: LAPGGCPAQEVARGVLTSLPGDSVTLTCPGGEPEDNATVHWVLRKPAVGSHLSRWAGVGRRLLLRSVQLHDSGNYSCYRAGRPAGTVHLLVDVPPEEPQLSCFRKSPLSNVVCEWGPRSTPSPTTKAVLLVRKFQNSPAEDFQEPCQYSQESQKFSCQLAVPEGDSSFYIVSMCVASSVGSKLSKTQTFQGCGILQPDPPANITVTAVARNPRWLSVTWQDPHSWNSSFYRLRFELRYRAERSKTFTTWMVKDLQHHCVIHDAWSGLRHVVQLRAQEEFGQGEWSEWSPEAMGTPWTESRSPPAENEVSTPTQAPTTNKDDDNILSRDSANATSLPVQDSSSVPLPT

T2: recombinant human IL6R-his (human, UniProt P08887 20-365)
T2 construct: In house made; the entry includes the C-terminal His tag; also called human IL6R-his protein
T2 sequence: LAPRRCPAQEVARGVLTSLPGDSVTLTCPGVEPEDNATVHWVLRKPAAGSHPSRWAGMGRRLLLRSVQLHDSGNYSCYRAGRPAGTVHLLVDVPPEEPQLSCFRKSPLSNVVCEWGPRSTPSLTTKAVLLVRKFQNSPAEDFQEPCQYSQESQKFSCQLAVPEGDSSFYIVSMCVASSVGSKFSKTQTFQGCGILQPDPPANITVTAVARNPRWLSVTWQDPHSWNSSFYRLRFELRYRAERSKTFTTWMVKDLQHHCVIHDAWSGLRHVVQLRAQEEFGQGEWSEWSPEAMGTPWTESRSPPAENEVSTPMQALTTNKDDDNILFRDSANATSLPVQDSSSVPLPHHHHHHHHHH

T3: human IL6R expressed on cell surface (human, UniProt P08887 20-468)
T3 construct: whole, on cells; also called cell surface human IL6R; U266 cells expressing human IL6R
T3 sequence (looked up): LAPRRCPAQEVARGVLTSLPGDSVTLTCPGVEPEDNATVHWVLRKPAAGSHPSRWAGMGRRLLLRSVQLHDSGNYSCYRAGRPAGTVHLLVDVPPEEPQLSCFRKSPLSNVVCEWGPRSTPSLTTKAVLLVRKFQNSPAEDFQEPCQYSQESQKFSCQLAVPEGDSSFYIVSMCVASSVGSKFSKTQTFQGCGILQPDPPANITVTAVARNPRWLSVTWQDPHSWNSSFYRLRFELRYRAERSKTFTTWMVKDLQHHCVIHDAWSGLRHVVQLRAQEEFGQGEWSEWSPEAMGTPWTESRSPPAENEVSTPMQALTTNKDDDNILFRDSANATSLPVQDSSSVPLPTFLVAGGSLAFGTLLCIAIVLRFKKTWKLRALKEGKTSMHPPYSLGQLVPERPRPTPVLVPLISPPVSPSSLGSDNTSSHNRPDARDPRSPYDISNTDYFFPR

B1: Tocilizumab (antibody, human IgG1, kappa, V domains shown)
VH: QVQLQESGPGLVRPSQTLSLTCTVSGYSITSDHAWSWVRQPPGRGLEWIGYISYSGITTYNPSLKSRVTMLRDTSKNQFSLRLSSVTAADTAVYYCARSLARTTAMDYWGQGSLVTVSS
VL: DIQMTQSPSSLSASVGDRVTITCRASQDISSYLNWYQQKPGKAPKLLIYYTSRLHSGVPSRFSGSGSGTDFTFTISSLQPEDIATYYCQQGNTLPYTFGQGTKVEIKR
notes: In house made; also called benchmark; Actemra
B2: mouse anti-IL6R monoclonal antibody 1F7 (antibody, V domains shown)
VH: QVQLQQPGAELVKPGASVKLSCKASDYTFTSYWMHWVKQRPGQGLEWIGEINPSNGRTNYNEKFKNKATLTVDKSSSTAYVQLYSLTSEDSAVYYCARLSIHYVFDYWGQGTTLTVSS
VL: ELVLTQSPTTMAASPGEKITFTCSASSSISSNYLHWYQQKPGFSPKLLISGTSNLASGVPPRFSGSGSGTSYSLTIVTMEAEDVATYYCQQGSGIPFTFGSGTKLEIK
notes: Mouse hybridoma mAb
B3: mouse anti-IL6R monoclonal antibody 1H7 (antibody, V domains shown)
VH: QVQLQQPGTELVKPGASVKLSCKASGYTFTNYWMHWVKQRPGQGLDWIGEINPTNGRTNYNENFKSKATLTVDKSSSTAYMQLSSLTSEDSAVYYCARLNTHYVFDSWGQGTTLTLSS
VL: B2 VL with L2I, M11L, A25V, G51R, N54T, P61A, V77G, I107L
notes: Mouse hybridoma mAb
B4: mouse anti-IL6R monoclonal antibody 1D4 (antibody, V domains shown)
VH: B3 VH with T9A, N31S, Q39V, D46E, N63D, D73N, K74S, S107Y, L116V
VL: B2 VL with L2I, T10I, M11L, A25V, S50Y, G51R, P61A, V77G
notes: Mouse hybridoma mAb
B5: Chimeric 1H7 (antibody, human IgG1, kappa, V domains shown)
VH: B3 VH
VL: EIVLTQSPTTLAASPGEKITFTCSVSSSISSNYLHWYQQKPGFSPKLLISRTSTLASGVPARFSGSGSGTSYSLTIGTMEAEDVATYYCQQGSGIPFTFGSGTKLELKR
notes: Mouse variable regions on human IgG1 / human kappa constant regions; also called chimeric antibody 1H7
B6: humanized antibody hu1H7-V5 (antibody, human IgG1, kappa, V domains shown)
VH: QVQLVQSGAEVKKPGASVKVSCKASGYTFTNYWMHWVRQAPGQGLEWIGEINPTNGRTNYNENFKSRVTLTVDTSTSTVYMELSSLRSEDTAVYYCARLNTHYVFDSWGQGTLVTVSS
VL: EIVLTQSPGTLSLSPGERATLSCSVSSSISSNYLHWYQQKPGLSPRLLISRTSTLASGIPARFSGSGSGTEYTLTISRMQSEDFAVYYCQQGSGIPFTFGQGTKLEIKR
notes: Human IgG1 / kappa
B7: mouse anti-IL6R monoclonal antibody 1H9 (antibody, V domains shown)
VH: QVQLQQPGAELVKPGASVKLSCKASGYTFTSYWMHWVKLRPGQGLEWIGEINPTNGRTNYYEKFKNRATLTADKSSSTAYMQLSSLTFEDSAVYFCAKFHYSRWYFDVWGTGTTVTVSS
VL: DIVMTQSQKFMSTSVGDRVSITCKASQNVGTAVVWYQQKPGQSPKLLINPASNRYTGVPDRFTGSGSGTDFTLTISNMQSEDLADYFCQQYSSYPLTFGAGTKLELK
notes: Mouse hybridoma mAb

Legend:
macaca IL6R-his protein = molecular target: T1, macaca IL6R-his protein; test: SPR Biacore; purified antibody captured by anti-human IgG on CM5, antigen in flow
[1] = molecular target: T2, recombinant human IL6R-his; test: as above
human IL6R-Fc protein [2] = molecular target: T4, human IL6R-Fc protein (human, biotin-labeled in the ELISAs (sites not given)); test: benchmark blocking ELISA: antibody pre-incubated with biotin-labeled human IL6R-Fc, added to plate-coated Tocilizumab (competitor: Tocilizumab)
T4 construct: In house made; also called biotin-labeled human IL6R-Fc protein
Method: ELISA plates were washed once with wash buffer (PBS+0.05% v/v Tween-20, PBST) and then blocked with 200 μl/well blocking buffer (5% w/v non-fatty milk in PBST) overnight at 4° C.
The next day, the anti-IL6R antibodies of the disclosure or controls were diluted with biotin labeled human IL6R-Fc protein (SEQ ID NO: 43, 13.6 ng/ml in 2.5% w/v non-fatty milk in PBST), starting at 100 nM with a 5-fold serial dilution, and incubated at room temperature for 40 minutes. […] After incubation at 37° C. for 40 minutes, plates were washed 4 times using wash buffer. Then streptavidin conjugated HRP was added, and the plates were incubated for 40 minutes at 37° C. The plates were finally washed using wash buffer, and added with TMB. The reaction was stopped using 1M […], and the absorbance was read on a microplate reader using dual wavelength mode with 450 nm for TMB and 630 nm as the reference wavelength. The OD (450-630) values were plotted against antibody concentration. Data was analyzed using Graphpad Prism software and IC₅₀ values were reported.

human IL6R-Fc protein [3] = molecular target: T4, human IL6R-Fc protein; test: ligand blocking ELISA: antibody pre-incubated with biotin-labeled human IL6R-Fc, added to plate-coated human IL6 (blocked ligand: human IL6)
Method: The next day, anti-IL6R antibodies or controls were diluted with biotin labeled human IL6R-Fc protein (prepared in house, SEQ ID NO: 43, 39.5 ng/ml in 2.5% w/v non-fatty milk in PBST), starting at 100 nM with a 4-fold serial dilution, and incubated at room temperature for 40 minutes. […] Plates were washed for 4 times using wash buffer, and added and incubated with 100 μl/well of streptavidin conjugated HRP (1:10000 dilution in PBST buffer, Jackson ImmunoResearch Laboratories, Inc., Cat #016-030-084) for 40 minutes at 37° C. Plates were washed again using wash buffer. Finally, TMB was added and the reaction was stopped using 1M H₂SO₄. The absorbance was read on a microplate reader using dual wavelength mode with 450 nm for TMB and 630 nm as the reference wavelength, and then the OD (450-630) values were plotted against antibody concentration. Data was analyzed using Graphpad Prism software and IC₅₀ values were reported.

[4] = molecular target: T3, human IL6R expressed on cell surface; test: cell-based binding FACS on U266 cells
Method: The binding activities of the mouse anti-IL6R antibodies to IL6R expressed on cell surface were tested by flow cytometry (FACS). Briefly, human myeloma cells U266 (ATCC® TIB-196™) were harvested from cell culture flasks, washed twice and resuspended in phosphate buffered saline (PBS) containing 2% v/v Fetal Bovine Serum (FACS buffer). 2×10⁵ U266 cells per well were incubated in 96 well-plates with 100 μl of the anti-IL6R antibodies or controls at various concentrations (starting at 40 nM with a 3-fold serial dilution in FACS buffer) for 40 minutes on ice. Cells were washed twice with FACS buffer, and added with 100 μL/well R-Phycoerythrin AffiniPure F(ab′)₂ Fragment Goat Anti-Mouse IgG (H+L) (1:1000 dilution in FACS buffer, Jackson ImmunoResearch Laboratories, Inc., Cat #115-116-146). Following an incubation of 40 minutes at 4° C. in dark, cells were washed three times and resuspended in FACS buffer. Fluorescence was measured using a Becton Dickinson FACS Canto II-HTS equipment. Data was analyzed using Graphpad Prism software and EC₅₀ values were reported.

Row | Binder | Kd (macaca IL6R-his protein) [nM] | Kd [1] [nM] | IC50 (human IL6R-Fc protein [2]) [nM] | IC50 (human IL6R-Fc protein [3]) [nM] | EC50 [4] [nM] | koff (macaca IL6R-his protein) [s⁻¹] | kon (macaca IL6R-his protein) [M⁻¹ s⁻¹] | koff [1] [s⁻¹] | kon [1] [M⁻¹ s⁻¹]
1 | B1 | 9.16 | 7.42 | 1.58 | 2.54 | 1.64 | – | – | – | –
2 | B2 | – | – | – | – | 0.304 | – | – | – | –
3 | B3 | – | – | 0.105 | 0.601 | 0.246 | – | – | – | –
4 | B4 | – | – | – | – | 0.274 | – | – | – | –
5 | B5 | 1.18 | 0.85 | – | – | – | 0.000112 | 94800 | 0.000112 | 132000
6 | B6 | 1.58 | 0.773 | – | – | – | 0.00012 | 75800 | 0.000112 | 145000
7 | B7 | – | – | 0.323 | 1.05 | 0.391 | – | – | – | –
